Results from patent CN115232210A (SHANGDONG NEW TIME PHARM PROD, dated 2022).

Key:
HEK293T细胞表达的人CD40 = target: T1, HEK293T细胞表达的人CD40 (human, UniProt P25942 21-277); assay: flow cytometry on 293T-huCD40 cells
T1 construct: whole, on cells; also called HEK293T-huCD40

重组人CD40-his蛋白 = target: T2, 重组人CD40-his蛋白 (human, UniProt P25942 21-193); assay: BLI (Fortebio Blitz), antibody on AMC sensor, huCD40-his 6.25-200 nM
T2 construct: extracellular domain; Recombinant protein; also called 人CD40(ECD)-his; huCD40-his; not shown: his tag
T2 sequence (P25942 21-193): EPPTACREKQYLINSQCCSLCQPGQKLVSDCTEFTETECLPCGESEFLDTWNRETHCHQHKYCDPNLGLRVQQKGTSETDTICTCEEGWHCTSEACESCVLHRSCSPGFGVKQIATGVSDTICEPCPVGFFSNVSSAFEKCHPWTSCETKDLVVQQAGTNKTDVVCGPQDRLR

T1 sequence (P25942 21-277): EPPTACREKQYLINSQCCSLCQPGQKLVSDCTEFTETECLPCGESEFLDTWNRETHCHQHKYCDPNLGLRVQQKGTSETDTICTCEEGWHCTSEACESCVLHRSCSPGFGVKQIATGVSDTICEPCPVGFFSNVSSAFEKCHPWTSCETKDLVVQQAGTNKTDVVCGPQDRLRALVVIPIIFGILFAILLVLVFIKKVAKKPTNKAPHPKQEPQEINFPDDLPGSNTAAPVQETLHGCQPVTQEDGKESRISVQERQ

Row | Binder | EC50 (HEK293T细胞表达的人CD40) [µg/mL] | Kd (重组人CD40-his蛋白) [nM] | koff (重组人CD40-his蛋白) [s⁻¹] | kon (重组人CD40-his蛋白) [M⁻¹ s⁻¹]
1 | 人源化抗体42 (antibody, human IgG1, kappa, V domains shown, Humanized IgG1/kappa; also called 42D11-8-humanized; 42Humanized) VH: QVQLQESGPGLVKPSQTLSLTCTVSGFSLTSYGVHWVRQHPGKGLEWLGMIWSGGSTDYNSAFISRLTISKDNSKSQVSLKLSSVTAADTAVYYCARVGGDYWGQGTTVTVSS VL: DIVITQSPLSLPVTLGQPASITCRSSQSLVHSRGNTYLHWFQQRPGQSPRLLIYKVSNRFSGVPDRFSGSGSGTDFTLKISRVEAEDVGVYFCFQTTHVPWTFGQGTRLEIKR | 0.251 | 33.2 | 0.00312 | 94000
2 | 人源化抗体31 (antibody, human IgG1, kappa, V domains shown, Humanized IgG1/kappa; also called 31A2-2-humanized; 31Humanized) VH: QVQLQESGPGLVKPSETLSLTCTVSGFSLTSYSVHWVRQPPGKGLEWLGMIWSGGSTDYNAAFISRLTISKDNSKSQVSLKLSSVTAADTAVYYCARVGGDYWGQGTTVTVSS VL: DVVMTQSPLSLPVTLGQPASITCRSSQSLLHSRGNTYLHWFQQRPGQSPRLLIYKVSNRFSGVPDRFSGSGSGTDFTLKISRVEAEDVGVYFCFQTTHVPWTFGQGTRLEIKR | 0.297 | 16.5 | 0.00223 | 135000
3 | APX005M (antibody, V domains shown) VH: QVQLVESGGGVVQPGRSLRLSCAASGFSFSSTYVCWVRQAPGKGLEWIACIYTGDGTNYSASWAKGRFTISKDSSKNTVYLQMNSLRAEDTAVYFCARPDITYGFAINFWGPGTLVTVSS VL: DIQMTQSPSSLSASVGDRVTIKCQASQSISSRLAWYQQKPGKPPKLLIYRASTLASGVPSRFSGSGSGTDFTLTISSLQPEDVATYYCQCTGYGISWPIGGGTKVEIK | 0.487 | 38.2 | 0.00533 | 140000
4 | 嵌合抗体C42 (antibody, human IgG1, kappa, V domains shown, Mouse-human chimeric IgG1/kappa expressed in Expi-293 cells; also called 42Chimeric; 抗体42D11-8的嵌合抗体) VH: QVQLKQSGPGLVQPSQSLSITCTVSGFSLTSYGVHWVRQSPGKGLEWLGMIWSGGSTDYNSAFISRLSISKDNFKSQVFFKMNSLQADDTAIYYCARVGGDYWGQGTTVTVSS VL: DIVITQTPLSLPVSLGDPASISCRSSQSLVHSRGNTYLHWFLQKPGQSPKLLIYKVSNRFSGVPDRFSGSGSGTDFTLRISRLEAEDLGVYFCFQTTHVPWTFGGGTKLEIKR | – | 13.5 | 0.00524 | 389000
5 | 嵌合抗体C31 (antibody, human IgG1, kappa, V domains shown, Mouse-human chimeric IgG1/kappa expressed in Expi-293 cells; also called 31Chimeric; 抗体31A2-2的鼠人嵌合抗体) VH: QVQLKESGPGLVQPSQSLSITCTVSGFSLTNYSVHWVRQSPGKGLEWLGMIWSGGSTDYNAAFISRLSISKDNFKSQVFFKMNSLQADDTAIYYCARVGGDYWGQGTTVTVSS VL: DVLMTQTPLSLPVSLGDPASISCRSSQSLLHSRGNTYLHWFLQKPGQSPKLLIYKVSNRFSGVPDRFSGSGSGTDFTLRISRVEAEDLGVYFCFQTTHVPWTFGGGTKLEIKR | – | 4.52 | 0.000395 | 87500
